The values below come from patent publication US20250179208A1 (ZONHON BIOPHARMA INSTITUTE, published 2025).

Like-named read-outs stand apart in the source and are kept apart here. Some results are limits rather than exact numbers.

In experiment [1] the target is T1, CD3 protein.
T1 chain 1: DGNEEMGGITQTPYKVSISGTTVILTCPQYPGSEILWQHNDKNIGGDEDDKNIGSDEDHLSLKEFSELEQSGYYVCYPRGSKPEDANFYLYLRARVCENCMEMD
T1 chain 2: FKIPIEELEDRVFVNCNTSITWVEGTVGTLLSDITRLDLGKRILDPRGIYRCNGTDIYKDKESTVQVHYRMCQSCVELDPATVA
Put plainly: BLI (Octet QKe), CD3 amine-coupled on AR2G sensor, antibody at 181.8 nM. The protocol:
The affinity of chimeric antibodies to antigen protein CD3 was determined by Fortebio Intermolecular Interaction Octet QKe instrument. First, the amino-coupled biosensor AR2G was activated with EDC/s-NHS, and the activated biosensor AR2G was solidified in CD3 protein solution diluted with 10 mM sodium acetate (pH 5.0) solution. The biosensor solidified with CD3 was quenched in 1M ethanolamine (pH8.5) solution. Then equilibrated in 1× kinetic solution. After equilibration, it was bound to bispecific antibody solution. They were dissociated in 1×kinetic solution. Fortebio Data Analysis 8.0 software was used to analyze the data and calculate the affinity constant value (KD).
A general note: Biolayer interferometry detects binding as a change in optical thickness at a sensor tip.

The target in experiment [2] is T2, CD26 protein (recombinant human CD26) (human, UniProt P27487 29-766, limits assumed).
T2 construct: Amine-coupled, biotinylated or HRP-labeled according to the assay; also called DPP4; rCD26
Put plainly: BLI (Octet QKe), CD26 amine-coupled on AR2G sensor, antibody at 181.8 nM. The protocol: The affinity of the chimeric antibody to the antigen protein CD26 was detected by Fortebio Intermolecular Interaction Octet QKe instrument. First, the amino-coupled biosensor AR2G was activated with EDC/s-NHS, and the activated biosensor AR2G was solidified in CD26 protein solution diluted with 10 mM sodium acetate (pH 5.0) solution. The biosensor solidified with CD26 was quenched in 1M ethanolamine (pH8.5) solution. Then equilibrated in 1× kinetic solution. After equilibration, it was bound to a humanized bispecific antibody solution. It was dissociated in 1× kinetic solution. Fortebio Data Analysis 8.0 software was used to analyze the data and calculate the affinity constant (KD), association rate constant (kon) and dissociation rate constant (kdis). The Response value represents the number of antibody molecules that can bind to the antigen. Kon indicates the binding speed of the antibody to the corresponding receptor. Kdis represents the dissociation speed of antibody from corresponding receptor. NA indicates no valid data.

Experiment [3] deals with T3, CD26 on CD26 positive human tumor cells (human, UniProt P27487 1-766). Put plainly: cell-based or functional assay.
Experiment [4] deals with T3, CD26 on CD26 positive human tumor cells. Nature of the experiment: cell-based or functional assay. The source holds these as a separate data set.
Experiment [5] has the same target. Put plainly: cell-based or functional assay. This is another data set of the same source.
The target of experiment [6] is T1, CD3 protein. Put plainly: BLI (Octet), biotinylated CD3 on SA sensor, antibody 200-1600 nM. How it is done:
CD3 protein was biotinylated with EZ-link NHS-PEG12-Biotin. Biotinylated CD3 protein was immobilized to SA biosensor. Equilibrated in 1×Kinetics solution. The CD3 immobilized to SA biosensor was combined with the humanized bispecific antibody solution to be detected. The concentration gradient of humanized bispecific antibody was 200 nM, 400 nM, 800 nM, and 1600 nM. The biosensor was dissociated in 1×Kinetics solution. Fortebio Data Analysis 8.0 software was used for data analysis and affinity constant values were calculated.

In experiment [7] the target is T2, CD26 protein (recombinant human CD26). Put plainly: BLI (Octet), biotinylated CD26 on SA sensor, antibody 31.3-500 nM. The protocol:
CD26 protein was biotinylated with EZ-link NHS-PEG12-Biotin. Biotinylated CD26 protein was immobilized to SA biosensor. Equilibrated in 1×Kinetics solution. The CD26 immobilized to SA biosensor was combined with the antibody solution to be detected. The concentration gradients of the antibody solution were 31.3 nM, 62.5 nM, 125 nM, 250 nM, and 500 nM. The biosensor was dissociated in 1×Kinetics solution. Fortebio Data Analysis 8.0 software was used for data analysis and affinity constant values were calculated.

Experiment [8] deals with T3, CD26 on CD26 positive human tumor cells. Put plainly: cell-based or functional assay. This is another data set of the same source.

B1: 17G105 (anti-CD26-CD3 chimeric bispecific antibody derived from No. 72 mouse antibody) (bispecific antibody)
chain: DIVLTQSPASLAVSLGQRATISCRASESVEYYGTSLMQWYQQKPGQPPKLLIYTASNVESGVPVRFSGSGSGTDFSLNIHPVEEDDIAMYFCQQSRKVPYTFGGGTKLEIKGGGGSGGGGSGGGGSQVQLQQSGPELMKPGASVKISCKATGYSFSGFWIEWVKQRPGHGLEWIGEILPGSGASNYHENFKGRATITADTSANTAYMQLRSLTSEDSAVYYCARERYYGSKYFDVWGAGTTVTVSSGGGGSDVQLVQSGAEVKKPGASVKVSCKASGYTFTRYTMHWVRQAPGQGLEWIGYINPSRGYTNYADSVKGRFTITTDKSTSTAYMELSSLRSEDTATYYCARYYDDHYCLDYWGQGTTVTVSSGGGGSGGGGSGGGGSDIVLTQSPATLSLSPGERATLSCRASQSVSYMNWYQQKPGKAPKRWIYDTSKVASGVPARFSGSGSGTDYSLTINSLEAEDAATYYCQQWSSNPLTFGGGTKVEIK
notes: also called chimeric BiTE
In experiment [1], B1 yielded a Kd of 2.18 nM, an off-rate constant (koff) of 0.000672 s⁻¹ and a kon of 309000 M⁻¹ s⁻¹. Further, in experiment [2], the Kd came out at 39.3 nM, the Response came to 0.498, the koff was found to be 0.00126 s⁻¹ and the on-rate constant (kon) turned out to be 32000 M⁻¹ s⁻¹.

B2: 19G294 (anti-CD26-CD3 humanized bispecific antibody derived from No. 62 mouse antibody) (bispecific antibody)
chain: DIVMTQSPSSLSVTPGERVSISCRSDKSLLHSNGNTYLYWFLQKPGQSPQVLIYRMSNLASGVPDRFSGSGSGTDFTLTISRVEAEDVGVYYCFQQLEYPYTFGQGTKLEIKGGGGSGGGGSGGGGSEVQLVQSGAELVKPGASVKLSCAASGFNIKDTYIYWVRQAPGQGLEWVGRIEPMNGNTKYDPKFQGRFTMTANTSKNTAYLQLSSLRSEDTAVYYCSRGGWLLLYVMDYWGQGTLVTVSSGGGGSDVQLVQSGAEVKKPGASVKVSCKASGYTFTRYTMHWVRQAPGQGLEWIGYINPSRGYTNYADSVKGRFTITTDKSTSTAYMELSSLRSEDTATYYCARYYDDHYCLDYWGQGTTVTVSSGGGGSGGGGSGGGGSDIVLTQSPATLSLSPGERATLSCRASQSVSYMNWYQQKPGKAPKRWIYDTSKVASGVPARFSGSGSGTDYSLTINSLEAEDAATYYCQQWSSNPLTFGGGTKVEIK
notes: also called 19G294 BiTE
Turning to B2, in experiment [3], the “IC50 of antibody mediated PBMC cytotoxicity against 786-0 cells” value came to 0.26 ng/mL, the “IC50 of antibody mediated PBMC cytotoxicity against HCC 827 cells” value was 0.546 ng/mL, the “IC50 of antibody mediated PBMC cytotoxicity against NCI-H226 cells” value amounted to 0.752 ng/mL and the “IC50 of antibody mediated PBMC cytotoxicity against NCI-H2052 cells” value was determined as 5.05 ng/mL. Further, in experiment [3], the “IC50 of antibody mediated PBMC cytotoxicity against OS-RC-2 cells” value amounted to 0.545 ng/mL and the “IC50 of antibody mediated PBMC cytotoxicity against PC-3 cells” value is 0.22 ng/mL. Further, in experiment [4], the “EC50 of antibody mediated cytotoxicity of PBMC against 786-0-LUC cells (luciferase reporter)” value is 2.62 ng/mL and the “EC50 of antibody mediated cytotoxicity of PBMC against A498-LUC cells (luciferase reporter)” value was 3.21 ng/mL. For the same molecule, in experiment [5], the “EC50 of antibody mediated cytotoxicity of PBMC against 786-0-LUC cells (luciferase reporter)” value was 1.43 ng/mL and the “EC50 of antibody mediated cytotoxicity of PBMC against A498-LUC cells (luciferase reporter)” value turned out to be 4.15 ng/mL. In experiment [6], this molecule returned a Kd of 0.751 nM, an off-rate constant (koff) of 0.000178 s⁻¹ and an on-rate constant (kon) of 238000 M⁻¹ s⁻¹. For the same molecule, in experiment [7], the Kd is 0.914 nM, the koff is 8.45e-05 s⁻¹ and the kon is 92400 M⁻¹ s⁻¹.

B3: 21G587 (19G294 anti-CD26 scFv joined to the WBP3311_2.306.4 anti-CD3 scFv) (bispecific antibody)
chain: EVQLVQSGAELVKPGASVKLSCAASGFNIKDTYIYWVRQAPGQGLEWVGRIEPMNGNTKYDPKFQGRFTMTANTSKNTAYLQLSSLRSEDTAVYYCSRGGWLLLYVMDYWGQGTLVTVSSGGGGSGGGGSGGGGSDIVMTQSPSSLSVTPGERVSISCRSDKSLLHSNGNTYLYWFLQKPGQSPQVLIYRMSNLASGVPDRFSGSGSGTDFTLTISRVEAEDVGVYYCFQQLEYPYTFGQGTKLEIKGGGGSQVQLVQSGAEVKKPGSSVKVSCKASGFAFTDYYIHWVRQAPGQGLEWMGWISPGNVNTKYNENFKGRVTITADKSTSTAYMELSSLRSEDTAVYYCARDGYSLYYFDYWGQGTLVTVSSGGGGSGGGGSGGGGSDIVMTQSPDSLAVSLGERATINCKSSQSLLNSRTRKNYLAWYQQKPGQPPKLLIYWASTRQSGVPDRFSGSGSGTDFTLTISSLQAEDVAVYYCTQSHTLRTFGGGTKVEIK
Regarding B3, in experiment [5], the “EC50 of antibody mediated cytotoxicity of PBMC against 786-0-LUC cells (luciferase reporter)” value was found to be 2.49 ng/mL and the “EC50 of antibody mediated cytotoxicity of PBMC against A498-LUC cells (luciferase reporter)” value was 5.4 ng/mL. Moreover, in experiment [6], binding was put at a Kd of 0.683 nM, the koff is 8.71e-05 s⁻¹ and the kon is 128000 M⁻¹ s⁻¹. Besides, in experiment [7], the Kd came out at 0.352 nM, the koff amounted to 4.01e-05 s⁻¹ and the kon amounted to 114000 M⁻¹ s⁻¹.

B4: 17G61 (anti-CD26-CD3 chimeric bispecific antibody derived from No. 62 mouse antibody) (bispecific antibody)
chain: DIVMTQAAPSVSVTPGESVSISCRSDKSLLHSNGNTYLYWFLQRPGQSPQVLIYRMSNLASGVPDRFSGSGSGTGFTLRVSRVEAEDVGVYYCFQQLEYPYTFGGGTKLEIKGGGGSGGGGSGGGGSEVQLQQSGAELVKPGASVKLSCTASGFNIKDTYIYWVKQRPGQGLEWIGRIEPMNGNTKYDPKFQGKATMTANTSSNTAYLHLSSLASEDTAVYFCSRGGWLLLYVMDYWGQGTSVTVSSGGGGSDVQLVQSGAEVKKPGASVKVSCKASGYTFTRYTMHWVRQAPGQGLEWIGYINPSRGYTNYADSVKGRFTITTDKSTSTAYMELSSLRSEDTATYYCARYYDDHYCLDYWGQGTTVTVSSGGGGSGGGGSGGGGSDIVLTQSPATLSLSPGERATLSCRASQSVSYMNWYQQKPGKAPKRWIYDTSKVASGVPARFSGSGSGTDYSLTINSLEAEDAATYYCQQWSSNPLTFGGGTKVEIK
notes: also called chimeric BiTE
B4: in experiment [1], binding was put at a Kd of 8.87 nM, the koff is 0.00159 s⁻¹ and the kon is 179000 M⁻¹ s⁻¹. Besides, in experiment [2], the Kd was 17.3 nM, the Response came out at 0.849, the koff was found to be 0.000331 s⁻¹ and the kon was found to be 19100 M⁻¹ s⁻¹.

B5: YS110 (humanized anti-CD26 full-length IgG antibody) (antibody, V domains shown)
VH: EVQLVESGAGVKQPGGTLRLTCTASGFSLTTYGVHWVRQAPGKGLEWVGVIWGDGRTDYDAAFMSRVTISKDTSKSTVYLQMNSLRAEDTAVYYCMRNRHDWFDYWGQGTTVTVSS
VL: DILLTQSPSSLSATPGERATITCRASQGIRNNLNWYQQKPGQAPRLLIYYSSNLQSGVPSRFSGSGSGTDFTLTISRLQPEDVAAYYCQQSIKLPFTFGSGTKVEIK
As to B5, the “cell lysis rate, antibody mediated PBMC cytotoxic effect on 786-0 cells (100 ng/ml, 5 h)” value (“cell lysis rate” below) in experiment [8] came to 56.6%. In addition, in experiment [3], the “IC50 of antibody mediated PBMC cytotoxicity against 786-0 cells” value was more than 100 ng/mL, the “IC50 of antibody mediated PBMC cytotoxicity against NCI-H226 cells” value was more than 100 ng/mL, the “IC50 of antibody mediated PBMC cytotoxicity against OS-RC-2 cells” value is more than 100 ng/mL and the “IC50 of antibody mediated PBMC cytotoxicity against PC-3 cells” value was more than 100 ng/mL.

B6: No. 62 mouse antibody (antibody, V domains shown)
VH: EVQLQQSGAELVKPGASVKLSCTASGFNIKDTYIYWVKQRPGQGLEWIGRIEPMNGNTKYDPKFQGKATMTANTSSNTAYLHLSSLASEDTAVYFCSRGGWLLLYVMDYWGQGTSVTVSS
VL: DIVMTQAAPSVSVTPGESVSISCRSDKSLLHSNGNTYLYWFLQRPGQSPQVLIYRMSNLASGVPDRFSGSGSGTGFTLRVSRVEAEDVGVYYCFQQLEYPYTFGGGTKLEIKR
On to B6, for which the “cell lysis rate” value in experiment [8] came out at 53.1%.

B7: No. 212 mouse antibody (antibody, V domains shown)
VH: EVQLQEAGPSLVKPSQTLSLTCFVTGDSITSGYWHWIRKFPGNKLEYMGYINYSGYTYYNPSLKSRFSITRDTSKNQYYLQLNSVTTEDTATYYCTSERNWGAFAYWGQGTLITVSS
VL: ENVLTQSPAIMSASPGEKVTMTCRASSSVISTYLHWYQQKSGASPKLWIYSTSNLASGVPARFSGSGSGTSYSLTISSVEAEDAATYYCQQFSGYPYTFGGGTKLEIK
B7: in experiment [8], the “cell lysis rate” value is 11.3%.

As a reminder, the Kd is the equilibrium constant for the complex coming apart. A word on the koff: it is a measure of how fast the partners let go of each other. Broadly, the kon is the rate constant with which the complex forms.
